Where a chain is given by its changes, count along the chain named.
B1: F1.120.16 (antibody, human IgG1, kappa, V domains shown)
VH: EFQLQQSGPELVKPGASVKISCKASGYSFTDYNMNWVKQSNGKSLEWIGLIHPKFSVTSYNRKFKGKATLTVDQSSSTAYMQLNSLTSEDSAVYYCARWAGDYFDYWGQGTTLTVSS
VL: DIVLTQSPATLSVTPGDSVSLSCRASQSISNNLHWYQQKSHESPRLLIKYASQSISGIPSRFSGSGSGTDFTLTINSVETEDFGMYFCQQSNSWPQTFGGGTKLEIKR
notes: Human-murine chimeric antibody
B2: F1.136.7 (antibody, human IgG1, kappa, V domains shown)
VH: EVQLQQSGPVMVKPGPSVKISCQTSGFTFTDYYIHWVKQSHGKSLEWIGLVFPYDGGTNYNQKFKDKATLTLDTSSSTAYMELNSLTSEDSAVYYCARAGGFSYALNYWGQGTSVTVSS
VL: DIQMTQSPSSLSASLGGKVTITCKASQDINNYIAWYQHKPGKGPRLLIHFTSTLQPGIPSRFSGSGSGRDYSFSISNLEPEDIATYYCLQYDNLLLTFGAGTKLELKR
notes: as for B1
B3: F1.145.22 (antibody, human IgG1, kappa, V domains shown)
VH: QVQLQQSGTDLARPGASVKLSCKASGYTFTSFGISWVKQRTGQGLEWIGEIYPRSGSPYYNEKFTGKATLTADKSSSTAYMELRSLTSEDSAVYFCAKDFGSSYVFDYWGQGTALTVSS
VL: DIQMTQSPASLSASVGETVTITCRASENIYSYLTWYQQKQGKSPQLLVYNAKTLAEGVPSRFSGSGSGTQFSLKINSLQPEDFGTYYCQHHYGTPPTFGTGTKLDLKR
notes: as for B1
B4: F2.55.11 (antibody, human IgG1, kappa, V domains shown)
VH: EVKLVESGGGLVKPGGSLKLSCAASGLTFSTCTMSWVRQTPAKRLEWVATISSGGGNTYYPDSVKGRFTISRDNARNTLYLQMSSLRSEDTAMYYCVRLYYDGSPYAMDYWGQGTSVTVSS
VL: DIQMTQTTSSLSASLGDRVTISCRASQDISNHLNWYQQKPDGTVKLLIYYTSRLHSGVPSRFSGSGSGTDYSLTISNLEQEDIATYFCQQDSKPPPTFGSGTKLEIKR
notes: as for B1
B5: F2.154.1 (antibody, human IgG1, kappa, V domains shown)
VH: QVQLQQSGAELVRPGASVKLSCKASGYRFTDYEMHWVKQTPVHGLEWIGTIDPETGNTAYTQKFMDKATLTADKSSSTAYMELRSLTSEDSAVYYCTRGYSFTYWGQGTLATVSA
VL: DVLMTQTPLSLPVSLGDQASISCRSSQNIVHSNGNTYLQWYLQKPGQSPKLLIFKVSNRFSGVPDRFSGSGSGTDFTLKISRVEAEDLGVYYCFQGSHVPFTFGTGTKLEIKR
notes: as for B1
B6: F3.38.7 (antibody, human IgG1, kappa, V domains shown)
VH: QVQLQQSGAELVRPGASVKLSCKASGYTFTDYEIHWVKQTPVLGLEWIGAIDPKTGNTAYNQKFMGKATLTADKSSTTAYMDLRSLTSEDSAVYYCTRYFSFAYWGQGTLVTVSA
VL: B5 VL with N28T, I29F, F54Y, F101Y, T105S
notes: as for B1

What was measured:
[1] = target: T1, monkey GPC3-His protein (monkey); assay: ELISA, monkey GPC3-His coated;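 note: Plate-coated antigen at 1 µg/mL, antibody binding 2 h at 37 °C, detected with HRP-labeled secondary antibody and TMB, absorbance at 450 nm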
T1 construct: Bought recombinant protein; also called monkey GPC3 protein
Method: The specific method is described as follows: The antigen protein was diluted with PBS to a final concentration of 1 μg/mL, and the diluent was added to a 96-well ELISA plate at 50 μL/well. The plate was sealed with a plastic film and incubated at 4° C. overnight, washed twice with PBS the next day, and a blocking solution [PBS+2% (w/w) BSA] was added for blocking at room temperature for 2 h. […] After incubation at 37° C. for 2 h, the plate was washed 3 times with PBS. A horseradish peroxidase (HRP)-labeled secondary antibody (purchased from Merck, Cat. No. AP113P) was added for incubation at 37° C. for 1 h, and the plate was washed 5 times with PBS. A TMB substrate was added at 50 μL/well for incubation at room temperature for 10 min, then a stop solution (1.0M HCl) was added at 50 μL/well. An ELISA plate reader (Multimode Plate Reader, EnSight, purchased from Perkin Elmer) was used to read OD_{450 nm} values, with results as shown in Table 4 to Table 6, FIG. 1A, FIG. 1B, and FIG. 1C.

[2] = target: T2, monkey GPC3 on HEK293T-monkey GPC3 cells (monkey); assay: FACS on HEK293T-monkey GPC3 cells;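 note: flow cytometry binding of test antibodies to the cells, read as mean fluorescence intensity, with half-maximal concentration taken from fitted curves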
T2 construct: whole, on cells
Method: The desired cells were expanded to a logarithmic growth phase in a T-75 cell culture flask, the medium was removed by pipetting, and the cells were washed twice with a PBS buffer, and digested with trypsin. Then a complete medium was added to stop the digestion, and the cells were blown into a single cell suspension. After counting, the cells were centrifuged, and the cell pellet was resuspended with an FACS buffer (PBS+2% fetal bovine serum) to 2×10⁶ cells/mL. The cell resuspension solution was added to a 96-well FACS reaction plate at 50 μl/well, and a chimeric antibody sample to be tested was added at 50 μl/well for incubation at 4° C. for 1 h. […] After the plate was centrifuged and washed 3 times with a PBS buffer, 100 μl of the resulting solution was assayed and analyzed by FACS (FACS Canto™, purchased from BD Biosciences). Data analysis was performed by software (FlowJo) to obtain the mean fluorescence intensity (MFI) of the cells. Then, analysis was performed by software (GraphPad Prism8), data were fitted, and EC₅₀ values were calculated.

[3] = target: T3, human GPC3-His protein (human, UniProt P51654 25-559); assay: SPR, antibody captured on Protein A chip, human GPC3-His analyte;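 note: measured at 25 °C flow cell, human GPC3-His injected at five concentrations up to 200 nM, 240 s association, up to 600 s dissociation, double-referenced, fitted to Langmuir 1:1 model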
T3 construct: also called human GPC3 protein; not shown: His tag

[4] = target: T1, monkey GPC3-His protein; assay: SPR, antibody captured on Protein A chip, monkey GPC3-His analyte;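 note: run at 25 °C with 240 s association and up to 600 s dissociation, double-referenced, kinetics fitted to a 1:1 Langmuir binding model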
Method: The flow cell was set at 25° C. The sample block was set at 16° C. Both were pretreated with the running buffer. In each cycle, first, the antibody to be tested was captured using the Protein A chip, and then a single concentration of GPC3 antigen protein was injected. […] The association was determined by injecting different concentrations of human GPC3-His in the solution and maintaining for 240 s, wherein the flow rate was 30 μL/min, and the protein was diluted at a 1:1 dilution ratio from 200 nM to obtain 5 concentrations in total. The dissociation phase was monitored for up to 600 s and triggered by switching from the sample solution to the running buffer. The surface was regenerated by washing with 10 mM glycine solution (pH 1.5) at a flow rate of 30 μL/min for 30 s. The difference in bulk refractive index was corrected by subtracting the responses obtained from the goat anti-human Fc surface. Blank injections (double reference) were also subtracted. To calculate the apparent KD and other kinetic parameters, the Langmuir 1:1 model was used.

Binder | OD450 at 0.0001 nM [1] [OD450] | OD450 at 0.001 nM [1] [OD450] | OD450 at 0.01 nM [1] [OD450] | OD450 at 0.1 nM [1] [OD450] | OD450 at 1 nM [1] [OD450] | OD450 at 10 nM [1] [OD450] | OD450 at 100 nM [1] [OD450] | EC50 [2] [nM] | Max MFI [2] [MFI] | Kd [3] [nM] | koff [3] [s⁻¹] | kon [3] [M⁻¹ s⁻¹] | Kd [4] [nM] | koff [4] [s⁻¹] | kon [4] [M⁻¹ s⁻¹]
B1 | 0.07 | 0.07 | 0.26 | 1.11 | 1.91 | 2.21 | 2.14 | 0.25 | 5540 | 8.03 | 0.000629 | 78400 | 4.44 | 0.000639 | 144000
B2 | 0.05 | 0.05 | 0.1 | 0.62 | 1.33 | 1.96 | 1.96 | 1.94 | 6480 | 0.837 | 7.03e-05 | 84100 | 0.183 | 2.88e-05 | 158000
B3 | 0.05 | 0.07 | 0.25 | 1.23 | 2.17 | 2.39 | 2.4 | 0.69 | 6050 | 0.754 | 0.000164 | 218000 | 0.525 | 0.000164 | 311000
B4 | 0.05 | 0.1 | 0.49 | 1.76 | 2.3 | 2.54 | 2.23 | 0.31 | 3530 | 7.77 | 0.000443 | 57000 | 5.24 | 0.000434 | 82800
B5 | 0.05 | 0.1 | 0.46 | 1.69 | 2.38 | 2.49 | 2.24 | 0.41 | 12400 | 1.21 | 0.000563 | 466000 | 0.706 | 0.000504 | 713000
B6 | 0.06 | 0.1 | 0.42 | 1.69 | 2.37 | 2.58 | 3.01 | 0.85 | 110000 | 0.997 | 0.000361 | 362000 | 0.725 | 0.000386 | 532000

— patent US20260116991A1 (HAINAN SIMCERE ZAIMING PHARMACEUTICAL, published 2026)
